Reference: patent publication US20230140200A1, “COMPOSITIONS AND METHODS FOR DETECTING CELLS UNDERGOING FERROPTOSIS USING AN ANTIBODY” (THE TRUSTEES OF COLUMBIA UNIVERSITY IN THE CITY OF NEW YORK, priority 2020, published 2023)
Entries after “also recorded” stand apart in the source; their conditions may differ.

How the values were obtained:
[1] = system: A-673 cells; test: Immunofluorescence in A-673 cells; type: cell-based, human; conditions: 1 μM RSL3, 4 h
[2] = system: HT-1080 cells; test: Flow cytometry staining without permeabilization; type: cell-based, human; conditions: vs DMSO
[3] = system: HCC mouse xenograft tumor tissue (Huh-7 cells); test: Staining of hepatocellular carcinoma (HCC) mouse xenograft tumor tissue sections; conditions: 50 mg/kg IKE once daily IP for 2 days
Procedure: Tumor tissues were fixed in 4% paraformaldehyde (PFA) for 24 h at 4° C. followed by washing with PBS three times. The tissues were perfused in 30% sucrose for 24 h at 4° C. for cryo-protection. The samples were embedded in OCT cryostat sectioning medium, and then moved directly into a cryostat. After equilibration of temperature, frozen tumor tissues were cut into 5 μm thick sections. Tissue sections were mounted on to poly-L-lysine coated slides by placing the cold sections onto warm slides. Slides were stored at −80° C. until staining. For staining, slides were warmed to room temperature followed by washing with PBS twice. A hydrophobic barrier pen was used to draw a circle on each slide. The slides were permeabilized with PBS with 0.4% Triton X-100 (PBT) twice before non-specific-binding blocking by incubating the sections with 10% goat serum (ThermoFisher 50197Z) for 30 min at room temperature. […] All images were captured on a Zeiss LSM 800 confocal microscope at Plan-Apochromat 63×/1.40 Oil DIC objective with constant laser intensity for all analyzed samples. The intensity above threshold of the fluorescent signal of the bound antibodies was analyzed using NIH ImageJ software (ImageJ, RRID:SCR_003070). Data were expressed as fold change comparing with the vehicle. […]

[4] = system: mouse liver tissues; test: Staining of normal mouse liver frozen tissue
Procedure: FIGS. 12A-12B show 3F3 FMA staining in human Huntington's disease brains and mouse tissues. In FIG. 12A, human HD and control brain tissues were fixed in 4% PFA for 24 h, perfused in 30% sucrose for 24 h, and stained with DAPI (nuclei, blue) and 3F3 FMA (red). The expression level of TfR1 is low. There was no difference between HD and control groups. In FIG. 12B, mouse liver tissues and mouse GBM tissues were fixed and stained with DAPI (nuclei, blue) and 3F3 FMA (red). 3F3 FMA was able to recognize mouse TfR1.

B1: 3F3-FMA: Murine monoclonal IgG1 raised against ferroptotic membrane fractions; antigen is transferrin receptor protein 1 (TfR1) (antibody, V domains shown)
VH: EVLLQQSGTELVRPGALVKLSCKASGFNIQDLYIHWVKQRPEQGLEWIGWIDPETDNTIYDPKFQGKASITADTSSNTAYLQLSSLTSEDTAMYYCSTGLLQWYFDVWGAGTAVTVSS
VL: DIVMTQSPSSLAMSIGQKVTMRCKSSQSLLNSYNQKNCLAWYQQKPGQSPKLLLYFVSTRESGVPDRFIGSGSGTDFTLTISSVQAEDLADYFCQQHYSTPLTFGAGTKLELK
- 3F3-FMA staining upon ferroptosis induction [1]: concentrated at the cell boundaries and became brighter
- antibody staining intensity by flow cytometry in RSL3-treated cells ([2]; 1 μM RSL3, 4 h): increased intensities
- antibody staining intensity by flow cytometry in STS-induced apoptosis ([2]; 1 μM STS, 6 h): decreased intensity; also recorded: decreased intensities
- antibody staining intensity in IKE-treated vs vehicle tumor tissue [3]: increased intensities; also recorded: difference in intensities
- staining signal in normal liver tissue [4]: robust signal
